Data taken from the NTF2 design screens of Basanta et al. (2020).

experiment: protease stability score; higher = more stable; yeast display proteolysis, trypsin and chymotrypsin;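 note: log10 excess protease needed over predicted unfolded state with 0 meaning unfolded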

Sequence | protease stability score
DERNNEFAKHFIEVLNQGDWKRLNEMLDPNVKVEIGDTTIHGRENFSRNVKQDLDHLRQEFHITSMDASGNKVEVRADVINRDNGKPREFKMKMEIRFHNGRVKEIKLDHDG | 1.53
DERNNKQADQFLRDMEKNDEHKLRKLADENVKFKIGDKVFRGWHDAVTEIATRIREMRVNVHRYDVKTHNGRVNLEIHQTAEYNGQPLNFSYIVIMEYQNGRLVRVNIRVSEEELKTMTQ | 0.475
DERNQKEVADKMYTAFRHGDPRKINKLADKDVTARYGDKVVSGRDDMVRQIDEIRKSIDHMSITSIEVHNGKADATLRFVVNGRDLQMKLVIVIHNGKVKHLSVQFRDDEQKKVLER | -0.174
DERNQRNLEKMLKAQERGNPDLLEELVDKNVKIEVGDKSVHGREELHRQQDRRRKQATLRYDDLRMKVSGNKVRVDMKFQVNHDGKPEKATADATYEFDNGKLKHVSVRVRQ | -0.06
DERNREIVEEYFKAIKQGDEDRYKQMVDPNVHVEVGDRNYHGREHQARWMHRLRKHMRLVFNIRSIDVSGDKVKVKLDYEEEHNGEPRTNKMTVEFKFHNGKILKIKIQTRQ | 2.08
DERNSELLKKVQEAWDHGDPRKLDEQMDPNAKVNVGDKNLHGKEQLRNTLEEDTRHSRVRVDYDSVTDHNGRVRASATFQDVINGKPVRDTFDFVAEVNNGKMKMLKVRVPEDNKRKLKR | 0.022
DERQENNARKFFTAYLKGDEHKLTELMRDDVRLKIGDKEIHGRETALKTIHTLRRRQRIHIQVDNIEVDENHVEVHAKIEWEHNGQPDSQKVRIDIKFHNGRINYLQMDLRG | 1.59
DERQIEQLKRYLEALKTGDKEKIKELLDPNARIVYGDKEVKGRENIAEQVKKRKDDSRYDWTSVDVKTSGDKLVMTARKVNNRNGRPHERQFTADIKIKNGRMQHLQFDSTG | -0.323
DERQLDLLRQFLHAVQHGDEDRLKELADPNAKFTVGDKTIHGMNTFARTVKRRRDQARFQYNVKSMEADGDKMEVRIQLHVDVNGRPINVEFTARAHVDGDKLKSLELRIPEEVLKKQES | 0.037
DERQLKILVRILNAIHEGDPDTVKQLVDPNARVVIGDKVLHGMDEVRDTLHKWQEEQEVDLKDYRDNVHNGKADITAKAKVNQDGTPDHIRFKATAEFRNGRAKEVRINHDK | 1.09
DERQNERFETLVKAIEEGDEDEAREQMDPNVRIEVGDKVIHGMDEFADTVRRTREELRVEFKIKRLRIKNGQVDVEMHVTFDHNGEPETARMVIKVNAHNGKIKNVVMRIHK | 1.6
DERQNKEAFQRVAENITTNNPDEIMKQADPNVRFKYGDKEVHGRENVRDIVKEFNERVDRVQIDHVNVQGDKVNANATADVNGRKHRFQIHAVIKNGRLKFMQIHDQ | 1.09
DERQNSQLHRQIEQAKQGDEEKVRQQMDENARARYGDKEVHGRTELARQQVRQWNEAKIDIEFKRVSAHENEIRVNVVMQFDVDGRPNRSTWTFKVRFHNGTIKQINAEIDPDEWDTLLK | 0.506
DERQRSRAEEFMKNYQTGNEQNLDKLFDKNAKVHVGDKVVHGREQIREQNRREKEHLRFKIRHMDVEVRNGHVSVQVRMEREHNGHPQTVSVQFRNEQHNGQIKRFEREEQQ | 0.258
DERQVERIDRHLKALEHGDEKTLVEMIDPNAHFSVGDKEIHGREEYAHQQRRRVKESRFQVTIKDVQVNGDTVHIKYTSDQKHNGQPREDSNVMVMDATGERIESAKVTKDQ | -0.418
DERQVKEIALEAAKAYISGNKEKLKKLGKEDVELEAGSHKYKGVEQMATVVEQFKKYGVELQITDVKVDGDKVKMRIQVHAGGTTWEFTMEIQVDGGRVDKMTIHLSEEMVKRIQKG | 1.02
DERRLEEVARHIRRGDKKHLNRLADPNAQLQYGNQRYTGRERVQTFWRQMITRADHLRVQSVTIHNGRIDAKFEMRVNGNKVEYRLKVQIHNGKAQNVQVNYRDEEDEKRMEENLG | 0.183
DERRLEQQQREYLKVLNTGNPDEMNELFDENASWQVGDKRYTGREEIERKLRELHNRVDQVRLDSYEVEPGRIKIDFQLDVNGVKVRITIILHYHNGRLQEVKMDVTDPEQWKHMQK | -0.011
DERRQAQQFADTFDDNMQENNEEEVVKMADPNAELTVGDKEYHGREEIQKWIKQIHDKVDHLEIHIKSVDVRNGRVTIRARVRVEHNGRQKTMSVDIKAEQKNGRFIIKTMTMG | 1.47
DERRQQEVLKRFIDALQTGDPQKLKELADPNAQVNVGDKTFHGRDELVRQVEDEKRRIDEFHVVSIENHGDHVTARFRKESDGHQTEFVMKAYVHNGKVQSVKIDSS | 0.201
DERTLEQLLQDFINNMQTGDHQSLKDLLDENARVNIGDKTLSGRERVTTALKRLMRRVDHIQVDHYEVTNGEMNIDMQLEVNGVRVKVEVIIEVHNGKAKFIEFRVRNEEQWERVEG | 1.84
DERTNTEMLKRLQHALQKNDPNEVRKLFDKDVQVQIGDKTLSGREQLLTEAEQRRKKIDDIEVTDMKSNPDHAVLSVVIKHNGRNRKVIYYIRWSNGKVRKVEERES | 1.5
DERVADQFVRALRTNDEEQLVRLMDEDAKMRVGEKEIHGRESVQTYLRRFAQQADHVDIHHVHIQGDKVSIDAVVEFNGKRVRFSMQFTVEGEKVKDVTIEARDEDDKRKLDEIFR | 1.79
DERVAHEFVKAINKGDPDRLNELADKNARAEVGDKTFHGREKLEQMWKQWKKMVDHIHIRRVRVHNGHIHVDYVVNIDGQNNQLEIKAVVENGKVQEVKIQVTDEQNQDKLRKKMD | 1.25
DERVHEAFRRFVHALKEGDPDKIRENADEDVRIEVGDTEIQGRETLADRVEEEMKDMQIEYQIDSIKVHGNKAKVNMRVVKNHNGKPETRKFTVHVTFDNGKVKNVHVQDDR | 1.3

Sequence | protease stability score
DERVIQEIRKMFNTNNFDSIAKNADKDATASIGNKHVHGKDNVKKLLDQFSRQIDHIQIDSVHVQGEKFVAQMKVNINGRERTAEMRMEVHNGKIQRISITFTDPSAQQTIKERME | 0.942
DERVKQQVETLERAVKHNDEDRLKELMDPNVRVRVGDRTVEGREEIAKQLVRTNNESRIEQKIDRVDVRGDKVHIDFQRREHHDGKPDSAKFNVLVKASNGRISEMEVHTNQ | -0.248
DERVKRLVEQWFRAIEHGDPDQERKYFDPNARVEIGDRELNGREEIAHDLKRRHDEMHLHLKSVTIRVEGDHAEVNVRFQQDHNGKPEQKVQHVVLHFRGDYVRKMEVRDTK | 1.15
DERVKSQATEFVTALKRNDEKRLMELADKDVSVRYGDKVVHGRERVRETARHITEESRVEYDTVRVDVQGNQANVEMEATFDHNGKPDRAKVNIQINFHNGKIKRVRIDKKP | 0.971
DERVNREWEKFIHAFESGNESQLKRLMDKDVRLTVGDKQIEGREEMARQLKKRRDQSRVSINIESVQHDGDKVHIQFHVTNNKNGRPEKRTSVVTVEAHNGKLKEVNIDDKP | 0.803
DERWKEKFEQMVRDQKTGNEDEVAKYFDKNAEIKVGDQRFHGREQLREHLREQRRQMRVDIDIKHVDVKGNHITVEYEFRENHNGRPTRRKATLRAEYHNGKIQRMRIDKSG | 1.33
DESAAERFDEFMRNVDTNNEHKLKEYADPNAKVQYGDKVLHGMDQIIHDIRRYMEEMRVRVDFKRYDAQGNELSFVADYSAEYNGEPVNDNVTFHVEAHNGKLKDMKINFDPKKDQDRRG | 0.355
DESAHKLVHDMMDAIRQNNPERVEQLADPNVKIEYGDEVIQGRENVSTTMKEILEKQRVEYNFKRVDDHNGQVRADVEVEVEHNGEPHRDKLIVHAERHNGRIRYVELQHDG | -0.174
DESAIHDVTNLLHNIQTGNPDEVDKHMDKHVKLNVGDKQISGRHRVRKKVEREKKEIRIHITVYHMRSRPGRVKIDATRENEHNGTPHSHRVIVDVRYDNGKIVNFRVEDVK | 0.366
DESAIQHWRKMLEAVETGDEKKIQKQADPNAKFRVGDKVIHGREKYAKQKVQEARQIRVEIDIKDWENRPGRVNLDADARYEINGQPVTFRLEVEMRMHNGHFVSVDVQFDEEKWEKLHK | 0.037
DESAKRKFEEFLEQIRHNNPDELKKMMDKDVRVNIGDKEINGRDQVKNELERFAKEQRFRIQVKHMSVSNGHLHAKVTVESTHNGSPDSDKFQVQANFQGDKFKEMQWDKDS | -0.189
DESAQRLFEELLKAEHDGDRDRYQQLIDPNARIQVGDKSVKGRENIKHDVYRKHKEIRFSIQSMNNKVDGDKVKVDAKVVKEHDGRPDHAQITATVRARGDKVDEIRKEERK | -0.245
DESARDIASTIVSALHNNNPSQFSENLDKDATLNIGDKRIHGKERAEEHLSNQIKSLRIQFDDYQVRVHNGDVIINLDYKRDHNGEPRRVKQRVTIQIHNGRAQSVVVKETS | 0.365
DESAVNNLVRLAKAWLRGDPKKIEHLVDKDAKAQIGDKTLHGREDLKDHADELRKDMTVDVKSVTNNNQNGQAVVDVKFEADRNGRPETHTLDAKATAHNGDIVDVKIHQDG | -0.304
DESDLSRQAKELIDNWETGNPDKMRKLMDENVTADVGDKRWHGRDEVVKWFKTLVDSIDHIEVREFKVSGNSVTFTAEANVNGKKATFQVVIEVHNGKIKDVKVNPDDLKQLEK | 1.58
DESDMKRQAELFIRAVNTGDSDKVRKMADKDAHYDVGDKEIHGRENAARWVQRLREQADEVTVRDVRVQGEKVVIDVQADVNGRDVRMDLVIEFHNGKAQEVKMKHS | 0.025
DESDQDRFRKYLHQLQNGDEKKLRKNMDPNVKFEVGEKRYEGREEYAKKVRQEVEEMRFSFKIHDIEVHNGRVTVEFEVTYEHNGRPDHEHVRIEMEVHNGKIRSVRQESDK | 0.043
DESDVEDLAKDAINAYQTGDPDQVARMADKDVKFTVGDHEVKGRNQLREHLQTIFHNVDHFDVTDMRINGNKARIHFTANVNGQTERNVMIIVAHNGKVRKMAIHSQ | -0.566
DESDVERLTEIMEQNDFDQWVDQADKDAELVVGDKTLKGRETIQRWLKILSERVDHVSIKHIRNNGEEVDVKMTMIINGHRFEFVVNLTVHNGKITRFNFNFRDPDQLRRLHDQMS | 1.25
DESDVKRAQDMVQNEQDGNEEEFDKLLDENVHFNVGDKRVNGRQQYLREVKKKRDQIRFSIKIDSVRARNGEATIDASARMVVNGQPKTYKFVIHVVQHNGDVRHVRISVPEEDVKRLKS | 0.212
DESEEKELEDILRRNDWERMSELAPPDVHATVGDTRLHGMEQVLSLFQTLNKRADQIHVKTLSVHNGQLHAVIVMQFNGRRVELHFDFEVKNGEFTSARVQARTEEEEKVMKEVLR | 1.05
DESEHAKRVADKFRTAAKNGDPDQFTQLADPNAKIDIGDKDVSGRERLSEVVNELNKRIDHLEVKVRSVTQRGNHLVVKADVDAEHNGQEIRRKVDIVLRNNNGRVNLEMIRYR | 1.03
DESELEQLKRDWEHNDFDQLVRNMDKDVRLRIGNKQWHGHEQVQNFNRKMQEQIDHQHIRHIETRGNKIRVTYEIDINGQTMVVNAEAYIDNGRLKSMHVKFTSEEHRKVFEKAVD | 0.746
DESELERAIEMLEQNDPEEARRQVDKNAHMQVGEKSWTGREDVQTALVKHNEHVDHVEVKSVTKRGDKAEVKARVEFNGHNLKANFIVEVHNGKIKHVRVEVTDEEQKKLMRELLQ | -0.363
DESEMDTAVKIVEKGDPHQYKKLIDPNAKIIVGDKELHGREDVERLLHKLYEQADHVQINSITVQGDELRVDAQFKFNGRDIRMVVEFRVHNGRVKSAHIQATSEEQERELSKMIS | 1.35
